For the assay, the target named is Recombinant green fluorescent protein (CopGFP, amplified from the pTurboGFP plasmid). As to the kind of experiment: SEC.

On to “Recombinant green fluorescent protein (CopGFP, amplified from the pTurboGFP plasmid) (natural protein)”, for which the stoichiometry N was determined as 2.

The values are drawn from paper PMC8271855.
